Assay results as given in article PMC4238058.

What was measured:
[1] = biological target: triply phosphorylated TIR3Y (His8-tagged human Nephrin tail with its pTyr sites replaced by the pTyr motif of EPEC Tir) (EPEC | human)
[2] = biological target: triply phosphorylated His8-tagged Nephrin cytoplasmic tail (amino acids 1174-1223, Y1183F, Y1210F; pTyr1176, pTyr1193, pTyr1217) (human)
[3] = biological target: (SH3)3: three repeats of the second Nck SH3 domain, plus the Nck SH2 domain (human)

| Substance | clustering concentration of (SH3)3 (SH3 module concentration) on bilayers with p-TIR at 2000 molecules/um^2 and 500 nM N-WASP [1] [nM] | clustering concentration of (SH3)3 (SH3 module concentration) on bilayers with p-Nephrin and 500 nM N-WASP [2] [nM] | equilibrium fractional intensity of p-Nephrin clusters (1 uM (SH3)3, 500 nM N-WASP) against peptide concentration, 100 nM to 100 uM; the pair that is blocked: (SH3)3 with p-Nephrin [3] [µM] |
| --- | --- | --- | --- |
| (SH3)3: three repeats of the second Nck SH3 domain, plus the Nck SH2 domain (designed binder) | 100 | 200 | – |
| TIR-1pY: N-terminal rhodamine labeled single pTyr motif from EPEC Tir protein (peptide) | – | – | > 10 |
